# Reference: paper doi:10.1101/2020.06.12.148387 (bioRxiv, 2020)
# B1: EY6A IgG (antibody, V domains shown)
# VH: EVQLVESGGGVVQPGRSLRLSCAASAFTFSSYDMHWVRQAPGKGLEWVAVISYDGSNKYYADSVKGRFTISRDNSKNTLYLQMNSLRAEDTAVYYCAKDGGKLWVYYFDYWGQGTLVTVSS
# VL: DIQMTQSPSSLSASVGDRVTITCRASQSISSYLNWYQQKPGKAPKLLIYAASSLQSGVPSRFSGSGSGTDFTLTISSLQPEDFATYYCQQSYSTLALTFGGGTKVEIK
# notes: also called antibody EY6A; EY6A mAb; copies: 2 + 2
# B2: EY6A Fab (digested from IgG with papain) (Fab, V domains shown)
# VH: B1 VH
# VL: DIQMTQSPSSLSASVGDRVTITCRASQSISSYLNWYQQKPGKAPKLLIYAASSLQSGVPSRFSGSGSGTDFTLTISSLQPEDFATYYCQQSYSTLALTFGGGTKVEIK
# notes: also called Fab-EY6A; source: digested from ExpiCHO-made IgG with papain (Pierce Fab Preparation Kit)
# B3: nanobody (Nb) used as crystallisation chaperone (VHH)
# VHH: QVQLVESGGGLMQAGGSLRLSCAVSGRTFSTAAMGWFRQAPGKEREFVAAIRWSGGSAYYADSVKGRFTISRDKAKNTVYLQMNSLKYEDTAVYYCAQTHYVSYLLSDYATWPYDYWGQGTQVTVSS
# What was measured:
# [1] = molecular target: T1, S1 subunit of SARS-CoV-1 Spike (SARS-CoV-1 (SARS-CoV), strain , UniProt P59594); assay: ELISA
# T1 construct: source: bought: Sino Biological
# [2] = molecular target: biotinylated SARS-CoV-2 RBD (SARS-CoV-2, UniProt P0DTC2); assay: cell-based ACE2 blocking assay (plate, streptavidin-HRP)
# SARS-CoV-2 RBD-Fc = SARS-CoV-2 RBD-Fc (SARS-CoV-2, strain  …, UniProt P0DTC2); assay: SPR; settings: both partners purified
# [3] = molecular target: deglycosylated SARS-CoV-2 RBD (SARS-CoV-2, UniProt P0DTC2); assay: crystal structure; settings: both partners purified
binder,measurement,setting,value
B1,binding result,[1],binds
same,IC50,[2],54 nM
B2,Kd,SARS-CoV-2 RBD-Fc,2 nM
B3,binding result,[3],binds
